First the molecules themselves.
B1: Twister Ribozyme (parent)
chain: AACACUGCCAAUGCCGGUCCCAAGCCCGGAUAAAAGUGGAGGGGGCGG

The data set covers variants of B1. Kind of data set: self-cleavage, relative activity (ratio to wild type); higher = more cleavage; co-transcriptional.
On to U18C G41U, for which the self-cleavage came to 0.13.

As for G7A C21U, the self-cleavage is 0.103.

Take G28C A30U: the self-cleavage is 0.857.

With U18A G36C, the self-cleavage came to 0.0768.

As to G7C G42C, the self-cleavage is 0.0454.

Regarding G44A G45C, the self-cleavage is 0.535.

Turning to C19A C46G, the self-cleavage came to 0.177.

In the case of U12G G44U, the self-cleavage came to 0.799.

With U12G G44A, the self-cleavage was 0.784.

For the variant A1U G13U, the self-cleavage was determined as 0.0563.

On to A10U A32U, for which the self-cleavage turned out to be 0.842.

Consider A33U A34U, for which the self-cleavage amounted to 0.847.

With C15U G36U, the self-cleavage turned out to be 0.203.

Consider C8A C25U, for which the self-cleavage is 0.125.

With C21G G24U, the self-cleavage was 0.0976.

Take A32U G48C: the self-cleavage was found to be 1.2.

Turning to C8U G48C, the self-cleavage turned out to be 0.652.

On to C9A G39U, for which the self-cleavage came out at 0.131.

Consider C14U G47A, for which the self-cleavage is 0.947.

On to A10G G47A, for which the self-cleavage is 0.821.

In the case of G16C A32U, the self-cleavage is 0.456.

Take C21A G42U: the self-cleavage is 0.0873.

Turning to A1G A10G, the self-cleavage amounted to 0.438.

With G13A A32G, the self-cleavage was 0.882.

For the variant C19U G41A, the self-cleavage stood at 0.134.

With G7A C19A, the self-cleavage was determined as 0.0667.

For C9A U37C, the self-cleavage is 0.16.

With C9A A30G, the self-cleavage came to 0.846.

As for U37C G41U, the self-cleavage is 0.126.

Turning to U6A U37G, the self-cleavage was determined as 0.328.

Regarding U6G G41C, the self-cleavage turned out to be 0.092.

As to C20G A34U, the self-cleavage was 0.074.

As to C25U U37G, the self-cleavage is 0.332.

As for G7C C25G, the self-cleavage was found to be 0.218.

Take C9G G38A: the self-cleavage worked out at 0.278.

As to U12C, the self-cleavage is 0.961.

Regarding A11C C14U, the self-cleavage is 0.909.

As to G13U C15U, the self-cleavage was 0.317.

On to G7U G16A, for which the self-cleavage is 0.0674.

On to C15G A34C, for which the self-cleavage was 0.0577.

As to A30C G36A, the self-cleavage amounted to 0.164.

With U18G C46G, the self-cleavage amounted to 0.0845.

Consider U37G G45U, for which the self-cleavage turned out to be 0.47.

Consider A23U C27G, for which the self-cleavage came out at 0.0875.

Take C3A G36C: the self-cleavage amounted to 0.0352.

As to A22G A33G, the self-cleavage amounted to 0.255.

As for C5U A10C, the self-cleavage was 1.06.

As for C5G A30U, the self-cleavage was found to be 0.883.

For the variant C5G U18A, the self-cleavage amounted to 0.104.

With A4U U18A, the self-cleavage was 0.0531.

As to A2U G45C, the self-cleavage stood at 0.191.

As for A1G G36U, the self-cleavage came out at 0.204.

As for C3U G36A, the self-cleavage came to 0.115.

G41A G42A: the self-cleavage is 0.129.

For U18C A40G, the self-cleavage is 0.121.

As to G17U A22C, the self-cleavage is 0.406.

Consider A2G G44U, for which the self-cleavage amounted to 0.215.

As for C8A C15G, the self-cleavage is 0.0688.

Consider C15A A35U, for which the self-cleavage was 0.774.

For the variant U12A G47U, the self-cleavage turned out to be 1.05.

For the variant U12C A33G, the self-cleavage is 1.

For G17C C19G, the self-cleavage worked out at 0.0591.

As to G17C C19U, the self-cleavage is 0.105.

As to G29C C46A, the self-cleavage came to 0.708.

On to C9A C26U, for which the self-cleavage is 0.06.

On to C20A G43C, for which the self-cleavage was found to be 0.0847.

G16A A23C: the self-cleavage was 0.137.

Take A2C A23U: the self-cleavage worked out at 0.0734.

On to C19G A34C, for which the self-cleavage turned out to be 0.0815.

Turning to A11U A23G, the self-cleavage amounted to 0.755.

As to G17C C46A, the self-cleavage amounted to 0.107.

For C14G C46U, the self-cleavage was found to be 0.175.

A1U A10G: the self-cleavage was 0.0651.

For C25A A32U, the self-cleavage was 0.078.

Turning to C27U G39A, the self-cleavage was found to be 0.253.

A10U G13A: the self-cleavage came to 0.913.

For C19A G39U, the self-cleavage was 0.124.

In the case of G7C G41C, the self-cleavage is 0.0623.

In the case of G41U, the self-cleavage was 0.752.

As for A2G G41C, the self-cleavage was determined as 0.141.

G13U A35C: the self-cleavage came out at 0.587.

C9A G41A: the self-cleavage was determined as 0.145.

Take C14A A34G: the self-cleavage amounted to 0.88.

As to C3A G16C, the self-cleavage amounted to 0.0608.

As to C3G A23G, the self-cleavage was 0.106.

For the variant A2G G38U, the self-cleavage worked out at 0.125.

Regarding U6A C9G, the self-cleavage was 0.244.

For C8U U37A, the self-cleavage came to 0.307.

As to C15U G45U, the self-cleavage was determined as 0.817.

As for C3U C8A, the self-cleavage stood at 0.17.

Consider U37C G48U, for which the self-cleavage is 0.881.

Consider A33U G47A, for which the self-cleavage is 0.739.

In the case of U12C A32C, the self-cleavage was 0.982.

As for C25U G41A, the self-cleavage turned out to be 0.194.

Regarding C26G U31A, the self-cleavage was 0.427.

On to A23C G48C, for which the self-cleavage came out at 0.211.

As for U12C G13A, the self-cleavage is 0.772.

As for G29A A34C, the self-cleavage was determined as 0.282.

For the variant A35C G44C, the self-cleavage was 0.943.

With A4U A40G, the self-cleavage came out at 0.0581.

For G17C A40C, the self-cleavage stood at 0.117.

As for G28U G39A, the self-cleavage is 0.362.

Take U12C G48A: the self-cleavage amounted to 0.952.

For G38A G42U, the self-cleavage came out at 0.133.

For A1C C15A, the self-cleavage was 0.179.

On to A4G G24C, for which the self-cleavage worked out at 0.0502.

For G17C G44C, the self-cleavage was 0.122.

For the variant G28A G41C, the self-cleavage is 0.177.

As for G13U G38U, the self-cleavage is 0.303.

For G42U G48U, the self-cleavage came to 0.451.

With A1U C9U, the self-cleavage is 0.0321.

For the variant G13A G16C, the self-cleavage amounted to 0.106.

For G7A C14U, the self-cleavage stood at 0.43.

Consider G7A G39U, for which the self-cleavage was 0.15.

Regarding U6A C46A, the self-cleavage was 0.809.

For the variant C21U A22G, the self-cleavage came out at 0.0633.

A1C C19G: the self-cleavage was determined as 0.187.

Take A34U U37G: the self-cleavage worked out at 0.372.

With C5A U37C, the self-cleavage stood at 0.124.

As to A2C G48U, the self-cleavage came to 0.0976.

As to G29U C46A, the self-cleavage amounted to 0.876.

A32G A40U: the self-cleavage amounted to 0.117.

Consider A2U G24U, for which the self-cleavage was determined as 0.0983.

Take U6C A22U: the self-cleavage was 0.141.

On to C9G A22C, for which the self-cleavage turned out to be 0.708.

Regarding C8U G17U, the self-cleavage was found to be 0.0946.

As to U18G G43U, the self-cleavage is 0.0664.

Regarding A23C C25U, the self-cleavage was 0.116.

As to G13A G41C, the self-cleavage was 0.17.

In the case of A11C U37C, the self-cleavage was found to be 0.808.

Consider A10G U37C, for which the self-cleavage turned out to be 0.946.

Consider A1U G44A, for which the self-cleavage was 0.0502.

As to C5A C14G, the self-cleavage was determined as 0.0565.

Take U6G C8A: the self-cleavage was 0.212.

In the case of C9A C25G, the self-cleavage stood at 0.0787.

Take A1G C21A: the self-cleavage is 0.157.

On to U6A C20A, for which the self-cleavage is 0.0593.

As for G39U A40C, the self-cleavage stood at 0.134.

As to C20G U31A, the self-cleavage worked out at 0.103.

In the case of C8U A11G, the self-cleavage was found to be 0.551.

Take G39U G43C: the self-cleavage turned out to be 0.132.

As for U6A A30U, the self-cleavage came to 0.981.

C26U G39C: the self-cleavage came out at 0.0911.

Take A10C A32U: the self-cleavage was 0.892.

Turning to C5U C46G, the self-cleavage stood at 0.776.

Consider A23U G41A, for which the self-cleavage amounted to 0.126.

As for C25G G38C, the self-cleavage worked out at 0.229.

In the case of C21U A35G, the self-cleavage amounted to 0.108.

U12C G36U: the self-cleavage is 0.543.

Take C3A A40U: the self-cleavage came to 0.0819.

A40G G47C: the self-cleavage is 0.192.

A10G C19U: the self-cleavage was determined as 1.02.

For G36U G38C, the self-cleavage worked out at 0.286.

As to C5U C26A, the self-cleavage amounted to 0.148.

As to U18C G44C, the self-cleavage was determined as 0.49.

As to C19U G43C, the self-cleavage was determined as 0.286.

For A2U C46U, the self-cleavage amounted to 0.723.

Consider A2U C46A, for which the self-cleavage worked out at 0.513.

For C15U G43U, the self-cleavage was determined as 0.277.

With U12C C20G, the self-cleavage was 0.103.

C3A C19A: the self-cleavage came out at 0.0415.

In the case of A33G G43U, the self-cleavage was 0.238.

Consider G41A G44U, for which the self-cleavage worked out at 0.228.

Turning to G41A G44C, the self-cleavage was 0.205.

Regarding G13A A22G, the self-cleavage came out at 0.107.

Take U6A A23U: the self-cleavage stood at 0.191.

As for G44C, the self-cleavage was 0.971.

(Values after the RNAGym collection of RNA variant scans (doi:10.7554/elife.80360).)
